Test results from US20170275350A1 (Scripps Research, published 2017).

What was measured:
[1] = system: Synthetic PAR1 N-terminal peptide TR33-62
[2] = molecular target: Protease activated receptor-1 (PAR1), endogenous on EA.hy.926 endothelial cells (human) (UniProt P25116); experiment: cell-based or functional assay
[3] = molecular target: T1, Protease activated receptor-1 (PAR1), endogenous on EA.hy.926 endothelial cells (human, UniProt P25116 42-425); experiment: cell-based or functional assay
T1 sequence: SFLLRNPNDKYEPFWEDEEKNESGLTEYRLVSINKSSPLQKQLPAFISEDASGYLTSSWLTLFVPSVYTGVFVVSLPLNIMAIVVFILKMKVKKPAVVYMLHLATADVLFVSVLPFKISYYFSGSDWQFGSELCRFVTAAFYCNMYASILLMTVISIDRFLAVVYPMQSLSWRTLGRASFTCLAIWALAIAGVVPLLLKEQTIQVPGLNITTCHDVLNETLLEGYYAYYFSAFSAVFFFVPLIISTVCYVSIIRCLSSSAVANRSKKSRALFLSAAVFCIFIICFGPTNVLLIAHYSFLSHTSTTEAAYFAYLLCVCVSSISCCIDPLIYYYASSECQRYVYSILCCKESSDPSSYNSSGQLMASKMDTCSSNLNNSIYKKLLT

Chain of Synthetic PAR1 N-terminal peptide TR33-62 (chain, as listed by the source): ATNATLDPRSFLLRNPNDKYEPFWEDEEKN

Molecule	cleavage of the peptide (reverse phase HPLC, MALDI-TOF of fragments) [1]	ERK1/2 phosphorylation in EA.hy.926 cells (immunoblot, ratio to total ERK1/2) [3]	also measured
Thrombin	the two fragments produced by thrombin (peaks A and D) corresponded to masses of 1,001 and 2,670 for cleavage at Arg^41		
Activated Protein C (from UniProt P04070 43-461) (enzyme)			ERK1/2 phosphorylation in EA.hy.926 cells (immunoblot, ratio to total ERK1/2) [2]: 1.5 fold; decrease of ATAP2 signal relative to WEDE15, on cell Western [2]: 50%
Activated Protein C	APC cleaves this PAR1 peptide at Arg^46 as well as at Arg^41		
TFLLRNPNDK [TFLL peptide (TR42-51 with S42T)]		3 fold	
NPNDKYEPFWEDEEKNESGL [PAR1 peptide TR47-66]		1.5 fold	
